The supplement of paper PMC9170038

system: MS2 coat protein; experiment: apparent KD of MS2 coat protein; higher = weaker reporter binding; details: Eterna round: R107; input ligand: theophylline 20 uM
How it was run: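 Titration buffer: 100 mM Tris-HCl pH 7.5, 80 mM KCl, 4 mM MgCl2, without or with constant ligand. Designed RNA switches transcribed on-chip from Illumina sequencing clusters received SNAP-549-labelled MS2 coat protein in twofold steps from 0.7 or 1.5 nM to 3 µM. Apparent KD is the median per design of fits to normalised cluster binding curves.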

Row | Sequence | apparent KD of MS2 coat protein
1 | CUCUCAUGAACAUGAGGAUCACCCAUGUAACGAGGACCGGUACGGCCGCCACUCGAACGUGGAAACCAAUCGAGUGAGGUGGGAG [Tryp A Ex t5b] | 98.4 nM
2 | AAGCUGCCAAGAACAUGGGUGAAAUGUGAUACCAGCUAGGAAACUAGCCCUUGGCAGCACAUGAGGAUCACCCAUGUAAUAAUAA [(T)'-(M)'-(T1)-(T2)-(M1)-(M2)_Design2_2/19/17] | 264 nM
3 | AUAUUAGACCUGGAUACCAGCGACAUGAGGAUCACCCAUGUAUGUGCAUCUGCCAUGAUAUGCCCUUGGCAGCCACCGAGGUCGU [CZZMULLIN] | 16 nM
4 | CGUACAUGAGGAUCACCCAUGUUACAUGAUACCAGACAUGAAAAUGUCCCUUGGCAGCAUGGCGCUGAUAGGGCGGGAAACCCGA [Zabovresky] | 23.2 nM
5 | AGUAAUCUAUCAGAUACCAGACCCUCUUUAACAUGAGGAUCACCCAUGUCUAUGUUCUACGUCCCUUGGCAGCUGUAAAUGAUAA [JR_SSTheophyB_Sub002] | 80 nM
6 | AACAUGGGAUUAAAAUAAAUAAUAACUGAUACCAGACUAUAUAAUGUCCCUUGGCAGCAGAUACAUGAGGAUCACCCAUGUAUUA [JR_Nu_ExcTheophyA_Sub023] | 14.9 nM
7 | UGUACCAUGUCGGCCGCCACUCAUGAUAAACAUGAGGAUCACCCAUGUAGCGUCAAAGACGCUAUGAGGACCGGGACAUGGUACU [TryBS Zipper 2 #StaticStem #Zipper] | 49.2 nM
8 | GGGAUAUAGGCGGCCGCCACUGAUUUUCAUAUAUAUAUAACAUGAGGAUCACCCAUGUAGAUAUACAGGACCGGGCCUAUAUUUU [aaaD] | 17.4 nM
9 | GUACAUGAGGAUCACCCAUGUAUAGUUGAAGGAGCGACCGGAGGGUCAGGUAGGUCGCAGCACAUGGCGUAAACCCGUGUAUGCC [#1 Exclusion - Arginine A Attempt #24 (Inspired by Pi)] | 32.7 nM
10 | GUUGGUUUGGGAAGGAGCGGGUAUGUUGUCUACUUGAUCCUAACAUGAGGAUCACCCAUGUCCCAGGUAGGUCGCCCAAGCUUUG [12.aE] | 152 nM
11 | UGGUAGCCACACUUCAAACAUCGACAAGAUACCAGUUAAUCAACGAACCCUUGGCAGCUUCGUACAUGAGGAUCACCCAUGUGGA [theeternabot_exclusion_MS2_Theo_A_6] | 24.2 nM
12 | ACGAUAGGGCAUGAGGAUCACCCAUGUGAUACCAGCCUGGAAACAGGCCCUUGGCAGCAUUAAUACUCCAAUAACCUAUCGAAUA [TheoAX 17 #MicroSwitchBubble #AlternativeMS2] | 184 nM
13 | CCGGGCCCGGGAGACCGGGCCCGGACUGAAGGAGCGGGAAUAAACCCAGGUAGGUCGCAGAGAUCCACAUGAGGAUCACCCAUGU [!0.U] | 51.7 nM
14 | AGCCACUCGAACAUGGGUGACGAGUGGCAACGAGGACCGGUACGGCCGCCACUCGAAUAAACAUGAGGAUCACCCAUGUACAAAU [T''-M'-T'-T-MS2 - Design 9] | 146 nM
15 | GGACUCGUCACGGCCGCCACUGCGGUGGUGUGACAUGAGGAUCACCCAUGUUGUCAUGCGGCCCUUAGGACCGGGUGUCGCGUCC [#1 Exclusion - Tryptophan B Attempt #25 (HarryS)] | 100 nM
16 | AAACUGGGUGUAAAAUAAAUAAUCACUGAUACCAGACUAUUUUAUGUCCCUUGGCAGCAGAAACAUGAGGAUCACCCAUGUAAUA [JR_Nu_ExcTheophyA_Sub025] | 25.3 nM
17 | AGUGGGUGUUAUGAUACCAGCGUAAUACACAACAUGAGGAUCACCCAUGUGGAGCCUCGCCGCCCUUGGCAGCAUUGGGCCCGCA [theeternabot_sameState_MS2_Theo_B_4] | 237 nM
18 | AAGAUACUCUGAAGGAGCGGCAUAAAACAUGAGGAUCACCCAUGUGCGCGGGUGUAAUUAUGCCAGGUAGGUCGCAGAGUAUUUA [#03 Same State - Arginine B] | 373 nM
19 | CUAGACUGUGCGGCCGCCACUGGCUCAUCCUGCAUUACAUGAGGAUCACCCAUGUUGCGGCCUCCCAGGACCGGGCAUAGUCUGC [Riinzaa] | 474 nM

same assay, conditions: Eterna round: R107; input ligand: theophylline 2 mM

Row | Sequence | apparent KD of MS2 coat protein
20 | CUAUAAGUAACUGAUACCAGUGUACUGACAUGAGGAUCACCCAUGUUGGGUUUUGUUGUACACCCUUGGCAGCAGAAUCUUAUAG [AstrosExyTheB#14] | 111 nM
21 | CGUAUGUAGACGGCCGCCACUGGAACCUGAGGAUCACCCAGGUACAGGGUGGGUAACUCGAGAGUCAGGACCGGGUCUACAUACA [Tryp B Ex t3] | 64.3 nM
22 | UAUAUAUAUCACGAACUGUGGUGUAUGUCCCGAGGACCGGUACGGCCGCCACUCGCGUGGUUCCACAUGAGGAUCACCCAUGUUG [XTryp A #7] | 25.9 nM
23 | AGACUGUCUUCGGACAGUCCGGACAGCCCGCGAGGACCGGUACGGCCGCCACUCGCACGAGGAUCACCCGUGUGAGGCUGUCCGA [Omei Tryp A Exc A v2] | 16.4 nM
24 | AGACCCUUCACGGCCGCCACUCAUUUUAAGUAGAGAGAGUACAUGAGGAUCACCCAUGUGAGAGAGAGGACCGGGUGAGAUAUUA [ss-trypB-0] | 21.3 nM
25 | GCUAGUGGCAGAAGGAGCGAGGCCCGCGCACAUAACAUGAGGAUCACCCAUGUGGCGAGACCUCAGGUAGGUCGCUGCCACUAGC [EAB NP+V2 #1] | 14.2 nM
26 | AAGAAAACAUGAGCAAAGCUCAUGUGCGAAGGAGCGGCGGAAACGCCAGGUAGGUCGCGCACAUGAGCAUCAGCCAUGUGUAUCA [Omei Arginine B SS A v3] | 101 nM
27 | ACAUGAGGAUCACCCAUGUUGAACUACCAUCGAGGACCGGUACGGCCGCCACUCGCGUUCUCCUUAGCAUCAAGGUCCGCGAAAC [theeternabot_exclusion_MS2_Trp_A_1] | 13.6 nM
28 | ACAUUUAACUGAAGGAGCGUGAUAUGUACAUGAGGAUCACCCAUGUCUUUCAUGUGAUUUUCACAGGUAGGUCGCAGACUAAUGA [JR_ExcArginiB_Sub003] | 13 nM
29 | GAUUGGAUUUGAAGGAGCGUCGAAAAUGGGUAAACAUGAGGAUCACCCAUGUAAAGGGAACGACAGGUAGGUCGCAAAUUUAAUC [AstromonsSSArgB#31] | 213 nM
30 | AUAUCUUCCACGGCCGCCACUGAAUGGUGCCCAAGGUCGAUCGCAGACAUGAGGAUCACCCAUGUCAGGACCGGGUGGUACUACG [theeternabot_exclusion_MS2_Trp_B_23] | 15.7 nM
31 | AUAACAGUGUCGGCCGCCACUAGAACACAUGAGGAUCACCCAUGUGGUGGUACCUCCUAAGACGAUAGGACCGGGACCCAUCUAC [theeternabot_exclusion_MS2_Trp_B_12] | 143 nM
32 | AACUGAAGCACCUUAUGCGGCGGCAAAACCCGAGGACCGGUACGGCCGCCACUCGAGUCGCAACAUGAGGAUCACCCAUGUGUAU [theeternabot_exclusion_MS2_Trp_A_30] | 78.8 nM
33 | GGUUACUCUACGGCCGCCACUGAUUAAUUAUAAUCCUGUACAUAAACAUGAGGAUCACCCAUGUACAGGACCGGGUAGUGUAACC [Tryptophan B 10] | 36.3 nM
34 | CUCUCAUGAACAUGAGGAUCACCCAUGUAACGAGGACCGGUACGGCCGCCACUCGAACGUGGAAACCAAUCGAGUGAGGUGGGAG [Tryp A Ex t5b] | 119 nM
35 | CGUACAUGAGGAUCACCCAUGUUACAUGAUACCAGACAUGAAAAUGUCCCUUGGCAGCAUGGCGCUGAUAGGGCGGGAAACCCGA [Zabovresky] | 28.7 nM
